Assays:
Calmodulin = molecular target: T1, Calmodulin (UniProt P0DP23 1-149); assay: cryo-EM structure; xKCNQ1(67-610) co-expressed with CaM in tsA201 cells, complex purified in DDM/CHS, 0.5 mM CaCl2; grids without and with 100 uM ML277; C4 symmetry imposed; conditions: both partners purified
T1 construct: Calmodulin; DNA a gift of the Wayne Chen lab; model built from residues 10 to 146; Sample held 0.5 mM CaCl2; also called CaM; Ca2+/CaM; source: tsA201 cells, co-transfected with xKCNQ1 (pcDNA3), co-purified with xKCNQ1

[1] = molecular target: the molecule itself; assay: as above

B1: Xenopus laevis KCNQ1, residues 67-610 (truncated, biochemically stable form) (domain or fragment, UniProt P70057 67-610, looked up)
chain: ATDPPRPTINLDPRVSIYSGRRPLLSRTNIQGRVYNFLERPTGWKCFVYHFTVFLIVLICLIFSVLSTIQQYNNLATETLFWMEIVLVVFFGAEYVVRLWSAGCRSKYVGVWGRLRFARKPISVIDLIVVVASVIVLCVGSNGQVFATSAIRGIRFLQILRMLHVDRQGGTWRLLGSVVFIHRQELITTLYIGFLGLIFSSYFVYLAEKDAIDSSGEYQFGSYADALWWGVVTVTTIGYGDKVPQTWIGKTIASCFSVFAISFFALPAGILGSGFALKVQQKQRQKHFNRQIPAAASLIQTAWRCYAAENPDSATWKIYIRKQSRNHHLMSPSPKPKKSAMVKKKKIRTERDEGSTDKMLNIPHITYDHVADDRKNDGYSVESYENTVRKPFGFLDPSTGPFIRTSSFTDDLDMEGDTLLTPITHISELKEHHRAAIKVIRRMQYFVAKKKFQQARKPYDVRDVIEQYSQGHLNLMVRIKELQRRLDQSLGKPSLFLSVSDKVKDKGINTIGSRLNRVEDKVTQMDHKLNLITDMLHHLLTNQQ
notes: KCNQ1 (Kv7.1) of Xenopus laevis, NP_001116347.1, residues 67-610; N- and C-termini truncated as in Sun and MacKinnon 2017; model built from residues 95 to 556 (67-94, 206-214, 385-496 disordered); Human KCNQ1 numbering is +10 against xKCNQ1; A preScission protease site stood between the channel and the C-terminal GFP-6xHis tag; residues of the site may be left after cleavage; Four subunits (C4 …)
B1: binds (Calmodulin); binds [1].

Source: PMC9243137, “Structural and electrophysiological basis for the modulation of KCNQ1 channel currents by ML277” (Nature Communications, 2022)
